Experiments:
[1] = Particle size measurement (Malvern Zetasizer / dynamic light scattering); type: physicochemical; settings: approximately 150 kD
Procedure: Lipids were dissolved in chloroform and used to prepare liposomes comprised of sphingosine:cholesterol:DAPC at a mole ratio of 3:2:5 in water as previously described. Briefly, the lipid mixture was dried with nitrogen gas to achieve a thin film that was incubated under vacuum overnight before rehydration with distilled water and sonication to achieve clarity (1-2 min). Lactosylceramide or PEG-ceramide were included in the chloroform-lipid mixture and incorporated into liposomes at a 5% mole ratio as previously described. […] The diameters of these preparations were 237.9±7.5 (lactose) and 273.4±10.4 (PEG) nm as reported previously.
Sphingosine, cholesterol, 1,2-diarachidoyl-sn-glycero-3-phosphocholine (DAPC), and C16-PEG750-Ceramide were purchased from Avanti® Polar Lipids (Alabaster, Ala.) and used to prepare liposomes at a 3:2:4.5:0.5 mole ratio (respectively) as previously described. The liposomes preparations have an average diameter of 135 nm, a PDI of 0.137, and were prepared in 5% dextrose to adjust the tonicity of the injection solution. […] A Malvern Zetasizer Nano-ZS was used for all size measurements.
FITC-dextran was chosen for these studies since it is commonly used to quantify endothelial and epithelial cell barrier permeability.

[2] = Direct injection of IFN-γ into tumors, persistence of cytokine levels; type: in vivo; settings: preliminary, data not shown
Text: In contrast to inflammatory cytokines (e.g., TNF-α, IFN-γ, IFN-α, IFN-β) that increase vascular permeability, IFN-λ works specifically on the endothelial/epithelial cells to strengthen barrier integrity and prevent viral invasion. […] Ultimately, the lack of a tightening response in the tumor epithelium allows nanoparticles unaltered access to the tumor upon repeat administration.

CT26 tumor-bearing mice = experiment: Doxil accumulation in organs and tumor after IFN-λ pre-treatment; type: in vivo, Balb/c mice
Text: Tumor Bearing Experiments: Prior to treatment, female immunocompetent Balb/c mice 6-10 weeks old were acquired from Jackson labs (Bar Harbor, Me.) and allowed to acclimate for one week. The mice were then inoculated in the right flank with approximately 1 million CT26 murine colon carcinoma cells (ATCC #CRL-2638). Tumors were allowed to grow for approximately 7 days or until tumor size reached at least 100 mm^3. […] Twenty-four hours after the dextran/Doxil® injections, animals were euthanized, and organs collected for dextran/drug accumulation analysis.
A standard curve of fluorescence for doxorubicin was determined through fluorescence measurements of a serially diluted stock solution of the Doxil® in 90% isopropyl alcohol (IPA) acidified with HCl to a final concentration of 0.075 M. Fluorescence measurements were conducted in a CellStar™ μClear™ 96-Well, Cell Culture-Treated, Flat-Bottom Microplate from Greiner Bio-One™ (Monroe, N.C.) at an excitation of 470 nm and emission of 595 nm using a Molecular Devices (San Jose, Calif.) SpectraMax® M5. […] The equation from the resulting standard curve of fluorescence from each specific organ was used to calculate the total amount of doxorubicin extracted from a corresponding Doxil® treated organ.
Organs collected from animals were immediately flash-frozen in liquid nitrogen and stored at −80° C. until analysis. […] Doxorubicin fluorescence of the extracted solution was then measured, and total doxorubicin accumulation was then calculated using the doxorubicin fluorescence standard curves described above. […]
To assess the effects of IFN-λ pre-treatment on Doxil® accumulation, mice were intravenously injected with either 100 μL of 1×PBS or 1 μg of IFN-λ in 100 μL 1×PBS. […] After an additional 24 hours following Doxil administration, tissues were harvested from experimental mice and the total Doxil accumulation in tissues was determined using the extraction method and standard curves described above. […]

IFNLR1 gene expression = IFNLR1 gene expression by RT-qPCR in primary human lung microvascular endothelial cells; type: cell-based; settings: 24 hours treatment, 100 ng/mL
Procedure: (§1) Interferon Lambda Receptor 1 (IFNλR1) mRNA Expression Quantification by Reverse Transcription-Polymerase Chain Reaction (RT-qPCR): Human Lung Microvascular Endothelial Cells (540-05A) (HLMVECs) purchased from Sigma-Aldrich® (Burlington, Mass.) were cultured and left untreated or treated with 100 ng/mL recombinant human IL-29 (R&D Systems® 1598-IL-025) or 100 ng/mL IL-28A/B (R&D Systems® 8417-IL-025/5259-IL-025) for 24 hours. […] After 24 hours, using TaqMan™ Fast Advanced Cells-to-CT™ kit purchased from Invitrogen™ (Waltham, Mass.), cells were collected according to manufacturer recommendations and IFNλR1 expression was quantified. PCR assay ID Hs00417120_ml (ThermoFisher Scientific™, Agawam, M A) was used to quantify IFNλR1 gene expression and PCR assay ID Hs03928985_g1 (ThermoFisher Scientific™, Agawam, M A) was used to quantify reference gene RNA18S5 expression.
(§2) To test the hypothesis that microvascular endothelial cells and liver epithelial cells respond to IFN-λ, real-time quantitative polymerase chain reaction (RT-qPCR) analysis was used to determine Interferon Lambda Receptor 1 (IFN λR1) gene expression in primary Human Lung Microvascular Endothelial Cells and primary Human Liver Epithelial Cells (TABLES 4 and 5). […] However, liver epithelial cells do express IFN λR1 and show an increase in IFN λR1 gene expression in response to IFN-λ and lipoplex treatment.

[3] = test system: IFNLR1 (interferon lambda receptor 1) gene expression; experiment: IFNLR1 gene expression by RT-qPCR in primary human liver epithelial cells; type: cell-based; settings: 24 hours treatment
Procedure: as §1, §2

Molecule: FITC-dextran
- hydrodynamic diameter [1]: approximately 100 nm

Molecule: IFN-γ: interferon gamma injected directly into tumors
- time cytokine levels are maintained in the tumor [2]: at least 4 h

B1: IFN-λ: recombinant mouse IFN-λ2 (R&D Systems, 4635-ML-025/CF) (protein, UniProt Q4VK74 20-193, looked up)
Interferon lambda-2: DPVPRATRLPVEAKDCHIAQFKSLSPKELQAFKKAKDAIEKRLLEKDLRCSSHLFPRAWDLKQLQVQERPKALQAEVALTLKVWENMTDSALATILGQPLHTLSHIHSQLQTCTQLQATAEPRSPSRRLSRWLHRLQEAQSKETPGCLEASVTSNLFRLLTRDLKCVANGDQCV
- Doxil accumulation in liver, spleen vs PBS pretreatment (CT26 tumor-bearing mice; 1 μg IFN-λ iv 24 h before 10 mg/kg Doxil): reduction
- Doxil accumulation in the skin, kidney, lungs, and heart vs PBS pretreatment (CT26 tumor-bearing mice; 1 μg IFN-λ iv 24 h before 10 mg/kg Doxil, tissues 24 h later): significantly reduces
- Doxil accumulation in tumor and plasma vs PBS pretreatment (CT26 tumor-bearing mice; not statistically significant): increase

B2: IL29: recombinant human IL-29 (R&D Systems 1598-IL-025) (protein, UniProt Q8IU54 20-200, looked up)
Interferon lambda-1: GPVPTSKPTTTGKGCHIGRFKSLSPQELASFKKARDALEESLKLKNWSCSSPVFPGNWDLRLLQVRERPVALEAELALTLKVLEAAAGPALEDVLDQPLHTLHHILSQLQACIQPQPTAGPRPRGRLHHWLHRLQEAPKKESAGCLEASVTFNLFRLLTRDLKYVADGNLCLRTSTHPEST
- IFN λR1 expression in endothelial cells (IFNLR1 gene expression): no expression detected
- ΔCt mean (IFNLR1 gene expression): No Amplification
- ΔΔCt ([3]; vs untreated): −1.092
- 2^-ΔΔCt (Relative fold-change compared to untreated) ([3]; 100 ng/mL cytokine or 1 μg/mL lipoplexes): 2.132
- ΔCt mean ([3]; 100 ng/mL cytokine or 1 μg/mL lipoplexes, reference RNA18S5): 19.476
